{"source": "paper PMC4278767", "key": {"[1]": {"test_system": "T1, Fis (Pseudomonas putida (strain PaW85?)), ORF:eb421da7", "T1 sequence": "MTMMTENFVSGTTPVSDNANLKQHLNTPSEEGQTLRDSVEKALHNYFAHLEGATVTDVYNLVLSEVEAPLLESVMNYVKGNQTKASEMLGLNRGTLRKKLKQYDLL", "assay": "EMSA", "conditions": "EMSA: 24 mM Tris/HCl pH 7.5, 50 mM KCl, 10 mM MgCl2, 1 mM CaCl2, 0.1 mM EDTA, 5% glycerol, 0.05 ug/ul BSA, 0.05 ug/ul salmon sperm DNA, 20 ul, 20 min room …"}, "[2]": {"test_system": "T1, Fis (Pseudomonas putida (strain PaW85?)), ORF:eb421da7", "assay": "DNase I footprinting", "conditions": "EMSA: 24 mM Tris/HCl pH 7.5, 50 mM KCl, 10 mM MgCl2, 1 mM CaCl2, 0.1 mM EDTA, 5% glycerol, 0.05 ug/ul BSA, 0.05 ug/ul salmon sperm DNA, 20 ul, 20 min room …"}}}
{"sequence": "CGTAACAGAGCCCTTTCAGGGGTCTTACGCACAGCCTCGACCAGGCAGTCGACAAACGGGTGGTTAGGGAGATATAGCAGCCGGTGGGGAAGCAACCAGATGGCTTTCTGGGTTAATCCTTTGGTAGAAAAGCCTCAGCGAAAGATCTA (double strand) [lapF promoter fragment with Fis-F2 (wild type)]", "values": [{"measurement": "binding", "setting": "[1]", "result": "binds"}, {"measurement": "binding", "setting": "[2]", "result": "binds"}]}
